Results as given in US20160130305A1.

How the values were obtained:
HLA B*0702 (human) = experiment: competition with radiolabeled probe peptide on purified HLA
HLA DRB1*0101 (human) = experiment: competition with radiolabeled probe peptide, purified MHC

Row | Substance | IC50 (HLA B*0702 (human)) [nM] | IC50 (HLA DRB1*0101 (human)) [nM]
1 | NS4B2296-2305 (peptide) | > 1000 | 
2 | NS52967-2981 (peptide; other documents disagree on this pair) |  | 48
